Results published in the nanobody polyreactivity screen of Harvey et al. (2022).

Assay: yeast display, Sf9 membrane polyspecificity reagent, FACS + sequencing; frameworks hold sequencing errors
How it was run: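 Sorting gates, low and high (top ~1%), were placed on anti-HA fluorescence to track expression and on streptavidin fluorescence to track reagent binding. A clone's polyreactivity label is taken from the gate it came out of. The reagent was 10% biotinylated, detergent-solubilized Sf9 membrane, applied for 1 hour at 4 °C to galactose-induced yeast display cells.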
With “QVQLVESGGGLVQAGGSLRLSCAASGRTFFYYAMGWYRQATGKERELVAAITSSGGSTNYADSVKGRFTISRDNAKNTVYLQMNSLKPEDTAVYYCNRDRRLNRVPYFDYWGQGTQVTVSS” the “polyreactivity (PSR sort gate)” value was “high polyreactivity”.
With “QVQLVESGGGLVQAGGSLRLSCAASGRTFFYYTMGWYRQAPGKERELVAAISRSGGSTYYADSVKGRFTITRDKAKNTVYLQMNSLKPEDTAVYYCAADRSRNFDWGQGTQVTVSS” the “polyreactivity (PSR sort gate)” value was “high polyreactivity”.
With “QVQLVESGGGLVQAGGSLRLSCAASGRTFGANAMGWYRQAPGKERELVAAISSSDDSTYYADSVKGRFTISRDNAKNTVYLQMNSLKPEDTAVYYCAAEDVYPQLDYWGQGTQVTVSS” the “polyreactivity (PSR sort gate)” value was “low polyreactivity”.
With “QVQLVESGGGLVQAGGSLRLSCAASGRTFGANTMGWYRPAPGKERELVAAITWSGDSTYYADSVKGRFTISRDNAKNTVYLQMNSLKPEDTAVYYCAARLWRQYYYWGQGTQVTVSS” the “polyreactivity (PSR sort gate)” value was “high polyreactivity”.
In the case of “QVQLVESGGGLVQAGGSLRLSCAASGRTFGDYAMGGYRPAPGKESELVAAISRRGGNTYYADSVKGRFTISRDNAKNTVYLQMNSLKPDDTAVYDCAAVAYALGFASKEDYWGQGTQVTGSS”, the “polyreactivity (PSR sort gate)” value is reported as “high polyreactivity”.
With “QVQLVESGGGLVQAGGSLRLSCAASGRTFGFNAKGRYRQAPGTERELVAAISGSGGRPYYADSVKWRFTISRDNAKNTDYLQMNSLKPEDSAVYYCAAGARRGGSGYWGQGTQVTVSS” the “polyreactivity (PSR sort gate)” value was “high polyreactivity”.
With “QVQLVESGGGLVQAGGSLRLSCAASGRTFGGNAMGWSRQAPGKERELVAAISISGGSNTYYADSVKGRFTISRDNGKNTVYLQMNSLKPEDTAVYYCAARSTVYISSDYWGQGTQVTVSS” the “polyreactivity (PSR sort gate)” value was “low polyreactivity”.
For “QVQLVESGGGLVQAGGSLRLSCAASGRTFGGNAMGWYRQAPGKERELVAAITGRGGSTYYADSVKGRFTISRDNAKNTVYLQMNSLKAEDTAVYYCAKQFKRGYGYDYWGQCTQVTVSS”, the “polyreactivity (PSR sort gate)” value was “low polyreactivity”.
In the case of “QVQLVESGGGLVQAGGSLRLSCAASGRTFGGNAMGWYRQAPGKERELVATIRSSSSTNYADSVKGRFTISRDNAKNTVYLQMNSLKPEDTAVYYCARRSQRGIYSMYYWGQGTQVTVSS”, the “polyreactivity (PSR sort gate)” value is reported as “low polyreactivity”.
For “QVQLVESGGGLVQAGGSLRLSCAASGRTFGGNAMGWYRQAPGKERELVATIRSSSSTNYADSVKGRFTISRDNAKNTVYVQMNSLKQEDTAVYYCNAARPDALNTYGYGFDYWGQGTQVTVSS”, the “polyreactivity (PSR sort gate)” value was “low polyreactivity”.
In the case of “QVQLVESGGGLVQAGGSLRLSCAASGRTFGGNAMGWYRQAPGKEREYVAAISRSGTSTYYADSVKGRFTISRDNAKNTVYLQMNSLKPEDTGVYYCAALNYHKFAHKSDYWGQGTQVTVSS”, the “polyreactivity (PSR sort gate)” value is reported as “low polyreactivity”.
In the case of “QVQLVESGGGLVQAGGSLRLSCAASGRTFGGYALGWYRQAPGKERELVAAISSGGGTYADSVKGRFTISRDNAKNTVYIQMNSLKPEDTAVYYCAAGYRWYWASKPTVHYYYWGPGTQVTVSS”, the “polyreactivity (PSR sort gate)” value is reported as “high polyreactivity”.
With “QVQLVESGGGLVQAGGSLRLSCAASGRTFGGYAMGWYRQAPGKERELVAAISRSGGSTRYADSVKGRFTISRDNAKNTVYLQMNSLKPEDTAVYYCAARQKYEILMEYWGQGTQVTVSS” the “polyreactivity (PSR sort gate)” value was “high polyreactivity”.
In the case of “QVQLVESGGGLVQAGGSLRLSCAASGRTFGGYVMGWYIQAPGKERELVASISSSAGSTYYADSVKGRFTISRDNAKNTVYLQMNSLKTEDTAVYYCAKRSYNPYYRYYRYPYGYWGQGTQVTVSS”, the “polyreactivity (PSR sort gate)” value is reported as “high polyreactivity”.
For “QVQLVESGGGLVQAGGSLRLSCAASGRTFGHNAMGWYRQAPGKEREFVAAITYSGVRTFYADSVKGRFTISRDNAKNTVYLQMNSLKPEDTSVYYCATDWRRDYDYWGQGTQVTVSS”, the “polyreactivity (PSR sort gate)” value was “low polyreactivity”.
With “QVQLVESGGGLVQAGGSLRLSCAASGRTFGHYAMGLYRQAPGKERELVADITRRGGSTSYADSVKGRFTISRDNAKNTVYLQMNSLKPEDTAVYYCNKAADGSSHYDYWGQGTQVTVSS” the “polyreactivity (PSR sort gate)” value was “low polyreactivity”.
For “QVQLVESGGGLVQAGGSLRLSCAASGRTFGHYAMGWYRQAPGKERELVAAITYSGGSTYADSVKGRFTISRDNAKNTVYLQMNSLKPEDTAVYYCNKRQKGYTRSYRYIVWYDYWGQGTQVTVSS”, the “polyreactivity (PSR sort gate)” value was “high polyreactivity”.
For “QVQLVESGGGLVQAGGSLRLSCAASGRTFGINAMGWYRQAPGKERELVAVISFGDGGTYYADSVKGRFTISRDNAKNTVYLQMNSLKPEDSAVYYCAAEVVAQMNYWGQGTQVTVSS”, the “polyreactivity (PSR sort gate)” value was “low polyreactivity”.
For “QVQLVESGGGLVQAGGSLRLSCAASGRTFGIYAMGWYRQAPGKERELVAAISCGGGSTYYADSVKGRFTISRDNAKNTVYLQMNSLKPEYTAVYYCAAQAQWDGQMDYWGQGTQVTVSS”, the “polyreactivity (PSR sort gate)” value was “low polyreactivity”.
With “QVQLVESGGGLVQAGGSLRLSCAASGRTFGKNAMGWYRQAPGKERELVAAISTSGGRTYYADSVMGRFTISRDNAKNTVYLQMNSLIPEDPAVYYCAAVLYDTRPVYGCESWGQGTQVTVSS” the “polyreactivity (PSR sort gate)” value was “high polyreactivity”.
With “QVQLVESGGGLVQAGGSLRLSCAASGRTFGKYARGWYRQAPGKERELVASITFSSGSTYYADSVKGRFTISRDNAKNTVYLQMNSLKPEDTAVYYCAKRGWGIYDYWGQGTQVTVSS” the “polyreactivity (PSR sort gate)” value was “low polyreactivity”.
In the case of “QVQLVESGGGLVQAGGSLRLSCAASGRTFGLNGMGWYRQAPGKEREFVATITGSGTSTYYADSVKGRFTISRDNAKNTVYLQMNSLKPEDTAVYYCAALSGLWGYHYYHEYYYWGQGTQVTVSS”, the “polyreactivity (PSR sort gate)” value is reported as “low polyreactivity”.
With “QVQLVESGGGLVQAGGSLRLSCAASGRTFGLYAMGWYRPAPGKERELVADINGSGTRTYYADSVKGRFTISRDYAKNTVYLQMNSLKPEDTAVYYCYGRYHWLYYWGQGTQVTVSS” the “polyreactivity (PSR sort gate)” value was “high polyreactivity”.
For “QVQLVESGGGLVQAGGSLRLSCAASGRTFGLYAMGWYRQAPGKERELVAAIDQSTGSTYYADSVKGRFTISRDNAKNTVYLQMNRLKPEDTAVYYCAAEEASTVRYYWYDYWGQGTQVTVSS”, the “polyreactivity (PSR sort gate)” value was “high polyreactivity”.
For “QVQLVESGGGLVQAGGSLRLSCAASGRTFGLYAMGWYRQAPGKERELVAAISWGGGRTYYADSVKGRFTISRDNAKNTVYLQMNSLKPEDNAVYYCNAVYSPRYYVGGYDYWGQGTQVTVSS”, the “polyreactivity (PSR sort gate)” value was “high polyreactivity”.
With “QVQLVESGGGLVQAGGSLRLSCAASGRTFGNNAMGWYRQAPGKERELVAAITGSGGSTYYADSVKGRFTISRDNAKNTVYLQMNSLKPEDTAVYYCAAVVYGAVRGSRYPYYYWGQGTQVTVSS” the “polyreactivity (PSR sort gate)” value was “high polyreactivity”.
In the case of “QVQLVESGGGLVQAGGSLRLSCAASGRTFGNYAMGWYRQAPGKERELVADITRRGGSTSYADSVKGRFTISRDNAKNTVYLQMNSLKPEDTAVYYCNADSYLPAIRYDYWGQGTQVTVSS”, the “polyreactivity (PSR sort gate)” value is reported as “low polyreactivity”.
For “QVQLVESGGGLVQAGGSLRLSCAASGRTFGPNAMGWYRQAPGKERELVAVISGSTGSTYYADSVKGRFTISRDNAKNTVYLEMNSLKPEDTAVYYCAAKSEFYDWYRSYQYEYYYWGQGTQVTVSS”, the “polyreactivity (PSR sort gate)” value was “high polyreactivity”.
With “QVQLVESGGGLVQAGGSLRLSCAASGRTFGPYAMGWYRQAPGKERELVAAITSSGGSTYYADSVKGRFTISRDNAKNTVYLQMNSLKPEDTAVYYCNKLYWRQSQDYDYWGQGTQVTVSS” the “polyreactivity (PSR sort gate)” value was “low polyreactivity”.
For “QVQLVESGGGLVQAGGSLRLSCAASGRTFGPYAMGWYRQAPGKERELVAVISKSGTRTYYADSVKGRFTISRDNAKNTVYLQMNSLKPEETAVYYCAARSPYSYRYDYWGQGTQVTVSS”, the “polyreactivity (PSR sort gate)” value was “high polyreactivity”.
With “QVQLVESGGGLVQAGGSLRLSCAASGRTFGPYEMGWYTQAPGKERELVASISSADSTYYADSVKGRFTISRDNAKNTVYLQMYSLKPEDTAVYYCAAPSVGYYDPTDFDYWGQGTQVTVSS” the “polyreactivity (PSR sort gate)” value was “low polyreactivity”.
In the case of “QVQLVESGGGLVQAGGSLRLSCAASGRTFGQNAMGWYRQAPGKERELVAAISSGGSTYYADSVKGRFTISRDNAKNTVYLQMNSLKPEDTAVYYCAVSSWDRGYWYYYWGQGTQVTVSS”, the “polyreactivity (PSR sort gate)” value is reported as “high polyreactivity”.
With “QVQLVESGGGLVQAGGSLRLSCAASGRTFGQNAMGWYRQAPGKERELVASIRSGGITDYADSVKGRFTISRDNAKNTVYLQMNSLKPEDTAVYYCNAEGVWWSTRYDSWGQGTQVTVSS” the “polyreactivity (PSR sort gate)” value was “low polyreactivity”.
For “QVQLVESGGGLVQAGGSLRLSCAASGRTFGQNAMGWYRQAPGKERELVASIRSGGITDYADSVKGRFTISRDNAKNTVYLQMNSLKPEDTAVYYCNDEGVWWSTRYDSWGQGTQVTVSS”, the “polyreactivity (PSR sort gate)” value was “low polyreactivity”.
For “QVQLVESGGGLVQAGGSLRLSCAASGRTFGRNAMGWYRQAPGKERELVAAISYGGGSTYYADSVKGRFTISRDNAKNTVYLQMNSLKPEDTAVYYCAAPTDDSSLGVYKHGYWGQCTQVTVSS”, the “polyreactivity (PSR sort gate)” value was “low polyreactivity”.
With “QVQLVESGGGLVQAGGSLRLSCAASGRTFGRYAMGWYRQAPGKAREFVAAISSSGGSTSYADSVKGRFTISRDNAKNTVYLQMNSLKPEDTAVYYCNADAYRITRYGYDYWGQGTQVTVSS” the “polyreactivity (PSR sort gate)” value was “high polyreactivity”.
In the case of “QVQLVESGGGLVQAGGSLRLSCAASGRTFGRYAMGWYRQAPGKERDLVATITSGGSTNYADSVKGRFTISRDNAKNTVYLQMNSLKPVDTAVYYCAAEFSPSRWAYSEGALRYNYWGHGTQVTVSS”, the “polyreactivity (PSR sort gate)” value is reported as “low polyreactivity”.
With “QVQLVESGGGLVQAGGSLRLSCAASGRTFGRYAMGWYRQAPGKERELVAAINRGGSTKYADSVKGRFTISRDNAKNTVYLQMNSLKPEDTAVYYCAKDRHPALHYDYWGQGTQVTVSS” the “polyreactivity (PSR sort gate)” value was “low polyreactivity”.
For “QVQLVESGGGLVQAGGSLRLSCAASGRTFGRYAMGWYRQAPGKERELVAAITRGGGSTYYADSVKGRFTISRDNAKYTVYLQMNSLKPEDTAVYYCAARNFRSPYGYDYWGQGTQVTVSS”, the “polyreactivity (PSR sort gate)” value was “high polyreactivity”.
With “QVQLVESGGGLVQAGGSLRLSCAASGRTFGRYTMGWYIQAPGKERELGASISNTARTNYADSVKGRFTISRDNAKNTVYLQMNSLKPEDTAVYYCAAGFVRYRGTRDYWGQGTQVTVSS” the “polyreactivity (PSR sort gate)” value was “low polyreactivity”.
In the case of “QVQLVESGGGLVQAGGSLRLSCAASGRTFGRYTMGWYRQAPGKERELVADITSGWSTYADSVKGRFTISRDNAKNSVYLQMNSLKPEDTAVYYCNADRTYPEPAEYYYWGQGTQVTVSS”, the “polyreactivity (PSR sort gate)” value is reported as “low polyreactivity”.
